Consider two molecules from PMC10240976.

A value given as a limit tells only on which side of the number the result lay.

Common to all, as to assay: ITC
Background: Isothermal titration calorimetry measures the heat released or taken up as one component is titrated into another.

One experiment addresses LC3C (purified, for ITC).
The target in experiment [1] is GABARAPL1 (purified, for ITC).
For experiment [2], the target named is GABARAPL2 (purified, for ITC) (human).
For experiment [3], the target named is GABARAP (purified, for ITC) (human).
The target of the next experiment is LC3B (purified, for ITC).
The next experiment has as its target T1, LIR[Sp] peptide.
T1 chain: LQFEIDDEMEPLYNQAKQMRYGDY
The conditions noted are these: chain shown with the change.

Sequence of GABARAPL2 (purified, for ITC) (human) (P60520 1-116): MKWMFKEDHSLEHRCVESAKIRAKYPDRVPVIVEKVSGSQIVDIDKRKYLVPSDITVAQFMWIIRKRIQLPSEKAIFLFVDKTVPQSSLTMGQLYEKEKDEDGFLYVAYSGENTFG

One may read the Kd as the free concentration of one partner at which half of the binding sites on the other are occupied at equilibrium, for simple one-to-one binding. Lower therefore signals higher affinity. On to DGTLIIDLPDSY [LIR(TP[T]) peptide], for which the Kd in the experiment with LC3C (purified, for ITC) was 26.9 µM; in experiment [1], above 132 µM; in experiment [2], above 132 µM; in experiment [3], above 132 µM; with LC3B (purified, for ITC), above 132 µM.

B1: GABARAP (purified, for ITC) F62W (protein)
chain: MKFVYKEEHPFEKRRSEGEKIRKKYPDRVPVIVEKAPKARIGDLDKKKYLVPSDLTVGQFYWLIRKRIHLRAEDALFFFVNNVIPPTSATMGQLYQEHHEEDFFLYIAYSDESVYG
In the experiment with LIR[Sp] peptide, B1 yielded an equilibrium dissociation constant (Kd) of 0.629 µM.
